Results as given in IntAct's records for PubMed 7651520.

Each substance was assayed against ste20_yeast STE20 (UniProt Q03497).
Sequence of ste20_yeast STE20 (Q03497 whole entry): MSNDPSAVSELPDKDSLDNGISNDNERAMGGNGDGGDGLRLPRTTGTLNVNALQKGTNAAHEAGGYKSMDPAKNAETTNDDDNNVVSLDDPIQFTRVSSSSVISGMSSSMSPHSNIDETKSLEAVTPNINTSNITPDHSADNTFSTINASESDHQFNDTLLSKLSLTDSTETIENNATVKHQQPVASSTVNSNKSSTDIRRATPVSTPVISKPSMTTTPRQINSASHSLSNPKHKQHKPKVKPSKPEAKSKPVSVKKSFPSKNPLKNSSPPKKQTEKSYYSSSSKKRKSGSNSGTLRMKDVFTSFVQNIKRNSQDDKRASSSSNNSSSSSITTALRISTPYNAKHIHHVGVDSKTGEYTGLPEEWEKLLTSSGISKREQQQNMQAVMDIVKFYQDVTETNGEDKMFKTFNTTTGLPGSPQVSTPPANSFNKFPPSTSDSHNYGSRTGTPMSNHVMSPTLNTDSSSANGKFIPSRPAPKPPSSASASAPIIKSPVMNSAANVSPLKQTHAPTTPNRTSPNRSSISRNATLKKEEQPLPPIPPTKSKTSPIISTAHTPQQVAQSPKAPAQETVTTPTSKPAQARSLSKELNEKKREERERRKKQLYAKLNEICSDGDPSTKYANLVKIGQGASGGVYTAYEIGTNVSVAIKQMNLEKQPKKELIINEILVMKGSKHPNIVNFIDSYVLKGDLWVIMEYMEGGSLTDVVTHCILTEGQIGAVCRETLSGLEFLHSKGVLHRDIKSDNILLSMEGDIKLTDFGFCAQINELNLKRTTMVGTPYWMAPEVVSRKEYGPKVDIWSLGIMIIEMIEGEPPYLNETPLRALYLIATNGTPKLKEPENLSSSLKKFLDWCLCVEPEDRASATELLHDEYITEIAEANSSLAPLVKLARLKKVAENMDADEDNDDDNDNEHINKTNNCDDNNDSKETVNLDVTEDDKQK

Sequence of Cell division control protein 42 (Saccharomyces cerevisiae), P19073 C188S (P19073 whole entry C188S): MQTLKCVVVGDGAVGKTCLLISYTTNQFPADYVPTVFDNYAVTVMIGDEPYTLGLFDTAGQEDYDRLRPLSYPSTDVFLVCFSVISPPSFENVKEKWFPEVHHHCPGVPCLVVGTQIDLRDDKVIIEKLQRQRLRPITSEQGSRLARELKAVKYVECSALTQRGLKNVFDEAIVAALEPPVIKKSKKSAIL
Sequence of Cell division control protein 42 (Saccharomyces cerevisiae), P19073 Q61L;C188S (P19073 whole entry Q61L/C188S): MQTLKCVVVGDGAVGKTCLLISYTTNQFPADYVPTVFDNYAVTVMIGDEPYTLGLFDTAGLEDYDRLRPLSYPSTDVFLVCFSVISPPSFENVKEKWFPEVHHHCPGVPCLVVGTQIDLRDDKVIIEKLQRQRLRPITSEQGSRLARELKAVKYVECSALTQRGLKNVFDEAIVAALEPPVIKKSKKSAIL
Sequence of Cell division control protein 42 (Saccharomyces cerevisiae), P19073 G12V;C188S (P19073 whole entry G12V/C188S): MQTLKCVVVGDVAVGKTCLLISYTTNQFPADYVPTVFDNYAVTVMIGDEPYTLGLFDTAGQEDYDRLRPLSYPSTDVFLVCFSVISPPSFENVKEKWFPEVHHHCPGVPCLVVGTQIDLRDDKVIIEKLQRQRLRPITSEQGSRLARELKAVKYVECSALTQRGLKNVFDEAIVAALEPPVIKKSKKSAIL

Effect of a mutation on the interaction, increasing interaction:
Cell division control protein 42 (Saccharomyces cerevisiae), P19073 G12V;C188S
Cell division control protein 42 (Saccharomyces cerevisiae), P19073 Q61L;C188S
Cell division control protein 42 (Saccharomyces cerevisiae), P19073 C188S
